From patent publication US20230183354A1 (IMMIOS HOLDING B V, published 2023)

Columns and labels:
[1] = target: T1, human CD103 (integrin Alpha-E) / human integrin Beta-7 heterodimer on cells (human, UniProt P38570 19-1179; P26010 20-798); assay: cell ELISA on CHO.K1-hCD103/beta7 cells, OD450-620, upper left panel
T1 construct: The same id is used for native CD103 on human CD103+CD8+ T cells (tumor digests, TGF-beta induced T cells); the assay field tells which cells; also called hCD103/hBeta7; CHO.K1-hCD103/hBeta7

[2] = target: T1, human CD103 (integrin Alpha-E) / human …; assay: cell-based ELISA on CHO.K1-hCD103/hBeta7 cells, relative absorbance, upper panel
Procedure: (§1) Wells were washed with PBS and incubated with Rabbit anti-Mouse/IgG-HRP (1:4000, Dako) or Fab specific Goat anti-Human/IgG-HRP (1:4000; Sigma Aldrich) for 1 h at 37° C. Next, wells were washed with PBS and TMB substrate (KPL) was added. The color reaction was stopped by adding 1M HCl solution and the absorbance was measured by a microplate reader (Thermo Scientific).

[3] = target: T1, human CD103 (integrin Alpha-E) / human …; assay: binding of 89Zr-labeled mAb to CHO.K1-hCD103/hBeta7 cells, bound activity in counts
[4] = target: T1, human CD103 (integrin Alpha-E) / human …; assay: flow cytometry competition on CD103+CD8+ T cells; pre-incubation with unlabeled 03A; table n=2
Procedure: (§2) Percentage binding of fluorescently labeled mAbs was determined using flow cytometry. Maximum binding was set at 100%.
(§3) Percentage binding of fluorescently labeled mAbs was determined using flow cytometry. Maximum binding was set at 100%

[5] = target: T1, human CD103 (integrin Alpha-E) / human …; assay: flow cytometry competition on CD103+CD8+ T cells; pre-incubation with unlabeled 05A; table n=2
Procedure: as §2, §3

[6] = target: T1, human CD103 (integrin Alpha-E) / human …; assay: flow cytometry competition on CD103+CD8+ T cells; pre-incubation with unlabeled 06A; table n=2
Procedure: as §2, §3

[7] = target: T1, human CD103 (integrin Alpha-E) / human …; assay: cell-based ELISA on CHO.K1-hCD103/hBeta7 cells, Df-conjugated mAb, relative absorbance, upper panel
Procedure: as §1

[8] = target: T1, human CD103 (integrin Alpha-E) / human …; assay: flow cytometry competition on CD103+CD8+ T cells; pre-incubation with unlabeled MCA708 (f4); table n=1
Procedure: as §2, §3

[9] = target: T2, recombinant hCD103/hBeta7 Fc-protein (Acro-Biosystems) (human, UniProt P38570 19-1124; P26010 20-723, limits assumed); assay: ELISA on coated recombinant human CD103/beta7 Fc-protein, OD450-620, lower right panel titled rhCD103/beta7
T2 construct: Bought protein with no catalog number and no construct limits printed; also called recombinant human CD103/Beta7; recombinant hCD103/beta7; not shown: fusion part of the bought 'Fc-protein'
Procedure: Protein coated 96-well plates were blocked in protein-free blocking buffer (Pierce) for 1.5 hour at 37° C. Plates were washed and incubated for 1 hour at RT with mAb/Fab in 0.1% Tween-20 in PBS. Next, plates were washed with PBS-T and incubated for 1 hour at RT with goat-anti-mouse IgG-HRP conjugate (Southern Biotech) for mAbs, and goat-anti-human Fab-HRP conjugate (Jackson Immuno Research) for the Fab fragments in 0.1% Tween-20 in PBS. […] Reactions were stopped with 0.5 M H2SO4 and absorbances were read at 450 and 610 nm.

T1 sequence (P38570 19-1179 limits assumed, chain 1 of 2): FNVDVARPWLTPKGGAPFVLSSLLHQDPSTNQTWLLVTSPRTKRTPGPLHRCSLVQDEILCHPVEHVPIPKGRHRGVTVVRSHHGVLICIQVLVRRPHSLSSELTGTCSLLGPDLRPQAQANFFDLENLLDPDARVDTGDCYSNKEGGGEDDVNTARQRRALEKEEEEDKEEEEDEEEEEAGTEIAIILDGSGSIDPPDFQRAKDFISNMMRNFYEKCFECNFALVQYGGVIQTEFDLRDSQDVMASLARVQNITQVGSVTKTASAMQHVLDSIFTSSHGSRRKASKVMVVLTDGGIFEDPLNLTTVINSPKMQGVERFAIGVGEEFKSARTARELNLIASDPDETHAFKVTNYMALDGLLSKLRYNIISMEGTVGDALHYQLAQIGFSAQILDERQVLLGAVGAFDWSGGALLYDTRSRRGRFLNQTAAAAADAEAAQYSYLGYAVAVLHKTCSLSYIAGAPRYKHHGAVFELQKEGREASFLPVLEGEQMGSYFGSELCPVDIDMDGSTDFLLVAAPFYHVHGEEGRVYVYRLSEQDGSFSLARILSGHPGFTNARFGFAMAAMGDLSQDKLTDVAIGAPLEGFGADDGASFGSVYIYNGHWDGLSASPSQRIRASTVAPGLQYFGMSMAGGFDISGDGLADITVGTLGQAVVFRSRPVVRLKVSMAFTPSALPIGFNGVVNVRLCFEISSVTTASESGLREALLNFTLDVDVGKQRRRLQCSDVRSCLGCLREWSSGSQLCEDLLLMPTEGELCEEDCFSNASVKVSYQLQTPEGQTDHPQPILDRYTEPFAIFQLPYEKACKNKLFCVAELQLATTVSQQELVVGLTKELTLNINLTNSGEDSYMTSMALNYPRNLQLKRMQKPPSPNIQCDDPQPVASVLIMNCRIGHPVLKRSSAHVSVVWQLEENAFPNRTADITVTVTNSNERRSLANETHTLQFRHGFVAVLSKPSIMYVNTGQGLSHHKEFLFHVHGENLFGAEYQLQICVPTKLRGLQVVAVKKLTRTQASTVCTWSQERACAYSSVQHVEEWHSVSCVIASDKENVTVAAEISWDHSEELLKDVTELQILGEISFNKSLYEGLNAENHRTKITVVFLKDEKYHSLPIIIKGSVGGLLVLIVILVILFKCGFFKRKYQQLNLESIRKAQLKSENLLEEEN
T1 sequence (P26010 20-798 limits assumed, chain 2 of 2): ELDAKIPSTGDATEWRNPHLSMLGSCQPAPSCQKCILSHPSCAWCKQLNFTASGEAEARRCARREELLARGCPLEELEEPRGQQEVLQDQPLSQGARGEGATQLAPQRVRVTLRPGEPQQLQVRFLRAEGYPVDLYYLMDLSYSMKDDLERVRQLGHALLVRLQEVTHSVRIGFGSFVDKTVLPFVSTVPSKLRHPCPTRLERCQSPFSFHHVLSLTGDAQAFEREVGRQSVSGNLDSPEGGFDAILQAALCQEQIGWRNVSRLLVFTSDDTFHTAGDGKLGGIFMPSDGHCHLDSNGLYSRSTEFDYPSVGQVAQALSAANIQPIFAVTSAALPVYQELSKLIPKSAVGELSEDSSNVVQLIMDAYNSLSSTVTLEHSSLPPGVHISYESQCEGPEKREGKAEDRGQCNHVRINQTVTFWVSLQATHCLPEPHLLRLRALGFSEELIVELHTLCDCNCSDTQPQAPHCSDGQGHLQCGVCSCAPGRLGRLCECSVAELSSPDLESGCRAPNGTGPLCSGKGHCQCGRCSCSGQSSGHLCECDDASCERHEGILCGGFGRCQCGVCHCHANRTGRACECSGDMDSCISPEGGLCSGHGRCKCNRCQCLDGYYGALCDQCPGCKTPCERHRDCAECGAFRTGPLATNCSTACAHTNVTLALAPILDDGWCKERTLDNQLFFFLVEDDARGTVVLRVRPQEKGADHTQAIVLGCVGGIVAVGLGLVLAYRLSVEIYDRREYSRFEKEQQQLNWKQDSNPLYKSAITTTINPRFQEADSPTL
T2 sequence (P38570 19-1124 limits assumed, chain 1 of 2): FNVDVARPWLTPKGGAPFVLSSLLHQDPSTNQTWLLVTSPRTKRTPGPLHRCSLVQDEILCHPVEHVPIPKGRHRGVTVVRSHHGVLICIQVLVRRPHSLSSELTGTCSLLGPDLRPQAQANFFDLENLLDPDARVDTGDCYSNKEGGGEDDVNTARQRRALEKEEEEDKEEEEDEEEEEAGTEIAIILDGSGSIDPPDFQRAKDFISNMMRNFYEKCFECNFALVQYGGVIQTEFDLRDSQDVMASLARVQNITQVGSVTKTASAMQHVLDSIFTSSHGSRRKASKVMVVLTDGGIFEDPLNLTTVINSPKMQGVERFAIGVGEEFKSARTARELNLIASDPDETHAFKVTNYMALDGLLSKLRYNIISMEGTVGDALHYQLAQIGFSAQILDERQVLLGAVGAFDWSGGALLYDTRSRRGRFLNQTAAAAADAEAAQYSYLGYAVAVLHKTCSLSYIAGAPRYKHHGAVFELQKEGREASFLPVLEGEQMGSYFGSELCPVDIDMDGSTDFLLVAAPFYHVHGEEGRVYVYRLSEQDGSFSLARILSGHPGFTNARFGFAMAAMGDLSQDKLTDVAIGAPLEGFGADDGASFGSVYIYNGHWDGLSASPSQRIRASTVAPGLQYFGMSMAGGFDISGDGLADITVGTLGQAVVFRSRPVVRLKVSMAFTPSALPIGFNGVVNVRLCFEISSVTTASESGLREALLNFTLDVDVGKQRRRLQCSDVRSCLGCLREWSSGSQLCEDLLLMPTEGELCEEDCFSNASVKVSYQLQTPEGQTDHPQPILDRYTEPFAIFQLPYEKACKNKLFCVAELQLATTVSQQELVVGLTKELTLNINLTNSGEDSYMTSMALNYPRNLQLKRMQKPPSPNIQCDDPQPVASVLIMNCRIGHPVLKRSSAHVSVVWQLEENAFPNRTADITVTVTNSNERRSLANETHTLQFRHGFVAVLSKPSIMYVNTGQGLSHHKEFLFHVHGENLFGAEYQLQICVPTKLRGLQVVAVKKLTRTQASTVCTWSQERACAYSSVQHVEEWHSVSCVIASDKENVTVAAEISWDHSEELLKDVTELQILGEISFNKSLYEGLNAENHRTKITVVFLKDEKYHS
T2 sequence (P26010 20-723 limits assumed, chain 2 of 2): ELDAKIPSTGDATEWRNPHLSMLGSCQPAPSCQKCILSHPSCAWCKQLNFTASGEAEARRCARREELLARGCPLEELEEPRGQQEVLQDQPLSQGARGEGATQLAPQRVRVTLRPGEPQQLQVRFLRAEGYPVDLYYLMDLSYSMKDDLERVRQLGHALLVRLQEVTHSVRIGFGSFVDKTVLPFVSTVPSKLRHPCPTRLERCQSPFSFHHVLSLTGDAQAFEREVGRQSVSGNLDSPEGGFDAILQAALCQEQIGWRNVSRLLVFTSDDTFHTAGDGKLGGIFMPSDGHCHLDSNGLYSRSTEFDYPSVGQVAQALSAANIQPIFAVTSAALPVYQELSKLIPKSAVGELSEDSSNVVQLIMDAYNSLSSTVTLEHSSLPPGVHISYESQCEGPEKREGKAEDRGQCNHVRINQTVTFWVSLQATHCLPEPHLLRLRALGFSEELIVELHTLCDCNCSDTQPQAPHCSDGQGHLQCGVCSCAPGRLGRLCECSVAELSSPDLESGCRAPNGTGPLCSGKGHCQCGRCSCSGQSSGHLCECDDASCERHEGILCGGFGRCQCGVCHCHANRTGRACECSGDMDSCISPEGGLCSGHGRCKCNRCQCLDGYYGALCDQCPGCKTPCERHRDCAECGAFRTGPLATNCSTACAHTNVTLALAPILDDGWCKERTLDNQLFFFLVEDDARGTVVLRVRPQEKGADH

Binder | EC50 (read off the curve) [1] [µg/mL] | EC50 (read off the curve) [2] [µg/mL] | EC50 (read off the curve) [3] [µg/mL] | % binding of the fluorescently labeled mAb (IgG pre-incubation = 100) [4] [%] | % binding of the fluorescently labeled mAb (IgG pre-incubation = 100) [5] [%] | % binding of the fluorescently labeled mAb (IgG pre-incubation = 100) [6] [%] | EC50 (read off the curve) [7] [µg/mL] | % binding of the fluorescently labeled mAb (IgG pre-incubation = 100) [8] [%] | EC50 (read off the curve) [9] [µg/mL]
hCD103.05A (antibody, mouse IgG1, V domains shown, Also tested labelled with AF647, conjugated with Df and labelled with 89Zr; these are written under this molecule; also called clone 05A; hCD103.05 mAb) VH: EVQLQQSGPELEKPGASAKISCKASGYSFTGYNMNWVKQSNGKSLEWIGNIDPYYGGTSYNQKFKGKATLTVDKSSSTAYMQLKSLTSEDSAVYYCARSFYGYDAGSPYNYAMDYWGQGTPVTVSP VL: DIVMTQSHKFMSTSVGDRVSITCKASQDVGTFVAWYQQKPGQSPKLLIYWASTRHTGVPDRFTGSGSGTDFTLTISNVQSEDLADYFCHQYSSYPYTFGGGTQLEIK | ~0.02 | ~0.04 | ~0.4 | 90.9 | 14.2 | 87.4 | ~0.04 | 94.6 | ~0.003
hCD103.01A (antibody, V domains shown, Also tested labelled with AF647, conjugated with Df and labelled with 89Zr; these are written under this molecule; also called clone 01A; hCD103.01 mAb) VH: EVQLQESGPSLVKPSQTLSLTCSVTGDSITSGYWNWIRKFPGNKLEYMGYITYSGSTYYNPSLKSRISITRDTSKNQYYLQLNSVTTEDTATYYCTRHYYGSDAMDYWGQGTSVTVSS VL: DIVMTQSHKFMSTSVGDRVSITCKASQDVSIAVAWYQQRPGQSPKLLIYSASYRYTGVPDRFTGSGSGTDFTFTISSVQAEDLAVYYCQQHYSTPWTFGGGTKLEIK | ~0.02 | ~0.04 |  | 97.3 | 77.4 | 90.9 | ~0.04 | 83.9 | ~0.003

Other lines, results leading:

EC50 (read off the curve) [1] [µg/mL] | EC50 (read off the curve) [2] [µg/mL] | EC50 (read off the curve) [3] [µg/mL] | % binding of the fluorescently labeled mAb (IgG pre-incubation = 100) [4] [%] | % binding of the fluorescently labeled mAb (IgG pre-incubation = 100) [5] [%] | % binding of the fluorescently labeled mAb (IgG pre-incubation = 100) [6] [%] | EC50 (read off the curve) [7] [µg/mL] | % binding of the fluorescently labeled mAb (IgG pre-incubation = 100) [8] [%] | EC50 (read off the curve) [9] [µg/mL] | Binder
~0.02 |  |  | 108 | 102 | 18.9 |  | 0.7 |  | hCD103.06A (antibody, mouse IgG1, V domains shown, also called clone 06A; hCD103.06 mAb) VH: QVQLQQPGSELVRPGASVKLSCKASGYTFTSYWMHWVKQRHGQGLEWIGNIYPGSGSTNYDEKFKSKGTLTVDTSSSTAYMHLSSLTSEDSAVYYCTRGVYDNPYYFDYWGQGTTLTVSS VL: DIQMTQSSSNLSVSLGGRVTITCKASDHINNWLAWYQQKPGNAPRVLISGATSLETGVPSRFSGSGSGKDYTLSITSLQTEDVATYYCQQYWSIPLTFGAGTKLELK
 |  |  | 77.8 | 11.4 | 81.6 |  | 92 |  | hCD103.07A (antibody, mouse IgG1, V domains shown, also called clone 07A) VH: EVQLQESGPSLVKPSQTLSLTCSVTGDSITSGYWNWIRKFPGNKLEYMGYITYSGSTYYNPSLKSRISITRDTSKNQYYLQLNSVTTEDTATYYCARNYYGSSSMDYWGQGTSVTVSS VL: DIVMTQSQKFMSTSVADRVSVTCKASQNVGSDVAWYQQKPGQSPKSLIYSASYRYSGVPDRFTGSGSGTDFTLTISNVQSEDLAEYFCQQYNSYPSTFGGGTKLEIK
